# Measured values taken from the Human Domainome abundance scans (Beltran et al. 2025).
# ± gives the uncertainty stated by the source.
# B1: Intersectin-1, residues 909 to 971; numbered along this chain, Q15811 (parent)
# chain: QGEKVEGLQAQALYPWRAKKDNHLNFNKNDVITVLEQQDMWWFGEVQGQKGWFPKSYVKLISG
# Variants of: B1
# Assay: abundance fitness (aPCA) (normalised: wild type 0, dead -1); higher = more abundant; growth selection in yeast, the domain comes from the species named
# Details: Homo sapiens
row,Variant,abundance fitness
1,N29F,-0.196 ± 0.36
2,N29S,-0.128 ± 0.091
3,N29H,0.104 ± 0.15
4,N29R,-0.172 ± 0.075
5,N29L,-0.269 ± 0.075
6,N29T,-0.311 ± 0.17
7,N29K,-0.324 ± 0.3
8,N29Q,-0.041 ± 0.19
9,N29P,-0.728 ± 0.48
10,T33K,-0.1 ± 0.099
11,T33C,-0.159 ± 0.11
12,T33P,-0.897 ± 0.19
13,T33R,-0.034 ± 0.043
14,Q11Y,-0.09 ± 0.26
15,Q11K,-0.142 ± 0.12
16,F53Q,-1.03 ± 0.42
17,F53H,-0.709 ± 0.49
18,F53Y,-0.666 ± 0.42
19,F53M,-0.543 ± 0.47
20,F53R,-0.951 ± 0.23
21,F53K,-0.962 ± 0.41
22,F53L,-0.701 ± 0.13
23,V46K,-0.051 ± 0.21
24,V46Y,-0.287 ± 0.29

row,Variant,abundance fitness
1,V46D,-0.384 ± 0.31
2,V46W,-0.09 ± 0.13
3,V46H,0.035 ± 0.2
4,V46A,0.015 ± 0.078
5,V46L,0.079 ± 0.083
6,V46E,-0.584 ± 0.13
7,V46G,-0.193 ± 0.073
8,E6M,-0.069 ± 0.25
9,E6T,-0.215 ± 0.12
10,E6R,-0.108 ± 0.097
11,E6A,-0.139 ± 0.11
12,E6P,0.074 ± 0.12
13,E45Y,0.003 ± 0.26
14,E45Q,0.067 ± 0.16
15,E45V,-0.013 ± 0.1
16,E45H,0.089 ± 0.21
17,E45D,-0.223 ± 0.26
18,E45N,-0.356 ± 0.3
19,E45I,-0.192 ± 0.16
20,Q9H,0.011 ± 0.27
21,Q9L,-0.133 ± 0.12
22,Q9F,-0.159 ± 0.2
23,Q9C,-0.109 ± 0.17
24,Q9K,-0.015 ± 0.14

row,Variant,abundance fitness
1,Q9T,-0.076 ± 0.14
2,N22L,-0.279 ± 0.17
3,N22G,-0.018 ± 0.074
4,N22C,0.051 ± 0.18
5,G44D,-0.999 ± 0.4
6,G44W,-1 ± 0.27
7,L24D,-1.26 ± 0.4
8,L24W,-0.778 ± 0.16
9,L24A,-0.436 ± 0.061
10,E36V,-0.044 ± 0.2
11,E36M,-0.177 ± 0.22
12,E36A,-0.026 ± 0.17
13,E36D,-0.761 ± 0.41
14,E36K,0.017 ± 0.26
15,E36W,-0.117 ± 0.12
16,E36H,-0.235 ± 0.2
17,R17F,-0.141 ± 0.27
18,R17V,0.061 ± 0.096
19,R17G,-0.306 ± 0.094
20,R17T,-0.097 ± 0.18
21,W52Q,-0.776 ± 0.46
22,W52P,-0.721 ± 0.27
23,W52A,-0.708 ± 0.41
24,G63D,0.07 ± 0.14

row,Variant,abundance fitness
1,G63P,-0.01 ± 0.19
2,G63M,0.011 ± 0.22
3,G63Q,-0.248 ± 0.38
4,G63L,-0.077 ± 0.32
5,G63C,0.026 ± 0.12
6,D30C,-0.166 ± 0.07
7,D30H,-0.511 ± 0.11
8,D30L,-0.751 ± 0.042
9,D30N,-0.396 ± 0.049
10,D30R,-0.778 ± 0.049
11,D30Y,-0.469 ± 0.069
12,D21L,-0.012 ± 0.063
13,D21R,-0.125 ± 0.056
14,V34E,-0.549 ± 0.19
15,V34S,-0.424 ± 0.26
16,V34T,-0.711 ± 0.22
17,V34I,0.221 ± 0.16
18,V34W,-0.524 ± 0.15
19,Q1S,-0.334 ± 0.36
20,Q1C,-0.06 ± 0.19
21,Q1L,-0.164 ± 0.17
22,Q1G,-0.083 ± 0.12
23,D39M,-0.221 ± 0.18
24,D39N,-0.215 ± 0.15

row,Variant,abundance fitness
1,D39V,-0.304 ± 0.14
2,D39C,-0.262 ± 0.24
3,D39W,-0.588 ± 0.16
4,D39H,-0.454 ± 0.39
5,D39Q,-0.328 ± 0.16
6,D39E,-0.071 ± 0.15
7,D39F,-0.313 ± 0.17
8,L35W,0.111 ± 0.19
9,L35F,-0.284 ± 0.26
10,Y57S,-0.308 ± 0.14
11,Y57H,-0.238 ± 0.18
12,Y57K,0.081 ± 0.23
13,Y57I,-0.289 ± 0.28
14,Y57L,0.013 ± 0.13
15,N27T,-0.307 ± 0.43
16,N27G,-0.185 ± 0.17
17,N27M,-0.037 ± 0.22
18,N27V,0.157 ± 0.17
19,N27K,-0.191 ± 0.17
20,G7V,0.076 ± 0.33
21,G7D,-0.095 ± 0.12
22,K20T,-0.079 ± 0.051
23,K20L,-0.176 ± 0.041
24,K20V,-0.117 ± 0.043

row,Variant,abundance fitness
1,K20Y,-0.15 ± 0.056
2,K20M,-0.06 ± 0.072
3,K20A,0.001 ± 0.049
4,K20P,-0.374 ± 0.063
5,K20D,-0.097 ± 0.056
6,K20F,-0.101 ± 0.059
7,L8P,-0.345 ± 0.2
8,L8D,-0.236 ± 0.13
9,Q38K,-0.173 ± 0.17
10,Q38R,0.029 ± 0.12
11,Q38E,0.008 ± 0.16
12,Q38G,0.026 ± 0.079
13,Q38L,-0.056 ± 0.21
14,V31I,0.011 ± 0.035
15,V31D,-0.484 ± 0.075
16,V31F,-0.022 ± 0.033
17,V31G,-0.476 ± 0.038
18,V31W,-0.132 ± 0.041
19,V31C,-0.08 ± 0.035
20,V31Q,-0.102 ± 0.038
21,V31M,0.003 ± 0.043
22,V31Y,-0.058 ± 0.036
23,V31K,-0.006 ± 0.045
24,V31E,-0.185 ± 0.041

row,Variant,abundance fitness
1,K50C,-0.113 ± 0.17
2,K50R,0.056 ± 0.12
3,K50I,-0.224 ± 0.21
4,Y14Q,-0.129 ± 0.21
5,Y14A,-0.09 ± 0.092
6,Y14C,-0.511 ± 0.14
7,Y14L,0.009 ± 0.097
8,Y14D,-0.104 ± 0.17
9,Y14P,-0.585 ± 0.44
10,P54E,-0.474 ± 0.14
11,P54G,-1.18 ± 0.41
12,P54S,-0.88 ± 0.27
13,G2M,0.113 ± 0.29
14,G2E,-0.001 ± 0.17
15,G2R,-0.38 ± 0.14
16,G2K,0.076 ± 0.28
17,G2T,-0.051 ± 0.2
18,I32V,-0.052 ± 0.062
19,I32Q,-1 ± 0.2
20,I32L,-0.23 ± 0.062
21,I32F,-0.423 ± 0.27
22,I32P,-0.42 ± 0.21
23,I32A,-0.7 ± 0.11
